Test results published in publication PMC8593620.

B1: RNF128 Iso1 (GRAIL): N48A (protein)
parent chain: MGPPPGAGVSCRGGCGFSRLLAWCFLLALSPQAPGSRGAEAVWTAYLNVSWRVPHTGVNRTVWELSEEGVYGQDSPLEPVAGVLVPPDGPGALNACNPHTNFTVPTVWGSTVQVSWLALIQRGGGCTFADKIHLAYERGASGAVIFNFPGTRNEVIPMSHPGAVDIVAIMIGNLKGTKILQSIQRGIQVTMVIEVGKKHGPWVNHYSIFFVSVSFFIITAATVGYFIFYSARRLRNARAQSRKQRQLKADAKKAIGRLQLRTLKQGDKEIGPDGDSCAVCIELYKPNDLVRILTCNHIFHKTCVDPWLLEHRTCPMCKCDILKALGIEVDVEDGSVSLQVPVSNEISNSASSHEEDNRSETASSGYASVQGTDEPPLEEHVQSTNESLQLVNHEANSVAVDVIPHVDNPTFEEDETPNQETAVREIKS
B2: RNF128 Iso1 (GRAIL): N101A (protein)
parent chain: MGPPPGAGVSCRGGCGFSRLLAWCFLLALSPQAPGSRGAEAVWTAYLNVSWRVPHTGVNRTVWELSEEGVYGQDSPLEPVAGVLVPPDGPGALNACNPHTNFTVPTVWGSTVQVSWLALIQRGGGCTFADKIHLAYERGASGAVIFNFPGTRNEVIPMSHPGAVDIVAIMIGNLKGTKILQSIQRGIQVTMVIEVGKKHGPWVNHYSIFFVSVSFFIITAATVGYFIFYSARRLRNARAQSRKQRQLKADAKKAIGRLQLRTLKQGDKEIGPDGDSCAVCIELYKPNDLVRILTCNHIFHKTCVDPWLLEHRTCPMCKCDILKALGIEVDVEDGSVSLQVPVSNEISNSASSHEEDNRSETASSGYASVQGTDEPPLEEHVQSTNESLQLVNHEANSVAVDVIPHVDNPTFEEDETPNQETAVREIKS
B3: RNF128 Iso1 (GRAIL): 3NA (protein)
parent chain: MGPPPGAGVSCRGGCGFSRLLAWCFLLALSPQAPGSRGAEAVWTAYLNVSWRVPHTGVNRTVWELSEEGVYGQDSPLEPVAGVLVPPDGPGALNACNPHTNFTVPTVWGSTVQVSWLALIQRGGGCTFADKIHLAYERGASGAVIFNFPGTRNEVIPMSHPGAVDIVAIMIGNLKGTKILQSIQRGIQVTMVIEVGKKHGPWVNHYSIFFVSVSFFIITAATVGYFIFYSARRLRNARAQSRKQRQLKADAKKAIGRLQLRTLKQGDKEIGPDGDSCAVCIELYKPNDLVRILTCNHIFHKTCVDPWLLEHRTCPMCKCDILKALGIEVDVEDGSVSLQVPVSNEISNSASSHEEDNRSETASSGYASVQGTDEPPLEEHVQSTNESLQLVNHEANSVAVDVIPHVDNPTFEEDETPNQETAVREIKS
B4: RNF128 Iso1 (GRAIL): N59A (protein)
parent chain: MGPPPGAGVSCRGGCGFSRLLAWCFLLALSPQAPGSRGAEAVWTAYLNVSWRVPHTGVNRTVWELSEEGVYGQDSPLEPVAGVLVPPDGPGALNACNPHTNFTVPTVWGSTVQVSWLALIQRGGGCTFADKIHLAYERGASGAVIFNFPGTRNEVIPMSHPGAVDIVAIMIGNLKGTKILQSIQRGIQVTMVIEVGKKHGPWVNHYSIFFVSVSFFIITAATVGYFIFYSARRLRNARAQSRKQRQLKADAKKAIGRLQLRTLKQGDKEIGPDGDSCAVCIELYKPNDLVRILTCNHIFHKTCVDPWLLEHRTCPMCKCDILKALGIEVDVEDGSVSLQVPVSNEISNSASSHEEDNRSETASSGYASVQGTDEPPLEEHVQSTNESLQLVNHEANSVAVDVIPHVDNPTFEEDETPNQETAVREIKS

Assay: immunoblot of steady-state levels, CpA cells
Conditions: glycan lost; control: wild-type Iso1

expression_or_secretion, decreases:
B1, B2, B3, B4
